Changes are numbered by the printed parent chain. Names and notes keep the numbering of the source.
B1: GDAP1Δ303–358 R120Q (domain or fragment, human, UniProt Q8TB36-1 1-302, looked up)
chain: MAERQEEQRGSPPLRAEGKADAEVKLILYHWTHSFSSQKVRLVIAEKALKCEEHDVSLPLSEHNEPWFMRLNSTGEVPVLIHGENIICEATQIIDYLEQTFLDERTPRLMPDKESMYYPQVQHYRELLDSLPMDAYTHGCILHPELTVDSMIPAYATTRIRSQIGNTESELKKLAEENPDLQEAYIAKQKRLKSKLLDHDNVKYLKKILDELEKVLDQVETELQRRNEETPEEGQQPWLCGESFTLADVSLAVTLHRLKFLGFARRNWGNGKRPNLETYYERVLKRKTFNKVLGHVNNILIS
notes: human GDAP1 lacking residues 303-358 (GDAP1Δ303–358) with the CMT-linked mutation R120Q; CMT disease variant; source: E. coli BL21(DE3), autoinduction, purified (Ni-NTA, TEV cleavage, reverse Ni-NTA, SEC); not shown: His6, N-terminal, cleaved
B2: GDAP1Δ303–358 R161H (domain or fragment, human, UniProt Q8TB36-1 1-302, looked up)
chain: B1 chain with Q120R, R161H
notes: human GDAP1 lacking residues 303-358 (GDAP1Δ303–358) with the CMT-linked mutation R161H; CMT disease variant; source: E. coli BL21(DE3), autoinduction, purified (Ni-NTA, TEV cleavage, reverse Ni-NTA, SEC); not shown: His6, N-terminal, cleaved
B3: GDAP1Δ303–358 A247V (domain or fragment, human, UniProt Q8TB36-1 1-302, looked up)
chain: B1 chain with Q120R, A247V
notes: human GDAP1 lacking residues 303-358 (GDAP1Δ303–358) with the CMT-linked mutation A247V; CMT disease variant; source: E. coli BL21(DE3), autoinduction, purified (Ni-NTA, TEV cleavage, reverse Ni-NTA, SEC); not shown: His6, N-terminal, cleaved
B4: GDAP1Δ303–358 H256R (domain or fragment, human, UniProt Q8TB36-1 1-302, looked up)
chain: B1 chain with Q120R, H256R
notes: human GDAP1 lacking residues 303-358 (GDAP1Δ303–358) with the CMT-linked mutation H256R; CMT disease variant; source: E. coli BL21(DE3), autoinduction, purified (Ni-NTA, TEV cleavage, reverse Ni-NTA, SEC); not shown: His6, N-terminal, cleaved
B5: GDAP1Δ303–358 R282H (domain or fragment, human, UniProt Q8TB36-1 1-302, looked up)
chain: B1 chain with Q120R, R282H
notes: human GDAP1 lacking residues 303-358 (GDAP1Δ303–358) with the CMT-linked mutation R282H; CMT disease variant; source: E. coli BL21(DE3), autoinduction, purified (Ni-NTA, TEV cleavage, reverse Ni-NTA, SEC); not shown: His6, N-terminal, cleaved
B6: GDAP1Δ319–358 R310Q (domain or fragment, human, UniProt Q8TB36-1 1-318, looked up)
chain: MAERQEEQRGSPPLRAEGKADAEVKLILYHWTHSFSSQKVRLVIAEKALKCEEHDVSLPLSEHNEPWFMRLNSTGEVPVLIHGENIICEATQIIDYLEQTFLDERTPRLMPDKESMYYPRVQHYRELLDSLPMDAYTHGCILHPELTVDSMIPAYATTRIRSQIGNTESELKKLAEENPDLQEAYIAKQKRLKSKLLDHDNVKYLKKILDELEKVLDQVETELQRRNEETPEEGQQPWLCGESFTLADVSLAVTLHRLKFLGFARRNWGNGKRPNLETYYERVLKRKTFNKVLGHVNNILISAVLPTAFQVAKKRAPK
notes: human GDAP1 lacking residues 319-358 (GDAP1Δ319–358) with the CMT-linked mutation R310Q; CMT disease variant; eluted as dimer (main peak) and monomer; source: E. coli BL21(DE3), autoinduction, purified (Ni-NTA, TEV cleavage, reverse Ni-NTA, SEC); not shown: His6, N-terminal, cleaved
B7: GDAP1Δ319–358 R310W (domain or fragment, human, UniProt Q8TB36-1 1-318, looked up)
chain: B6 chain with Q310W
notes: human GDAP1 lacking residues 319-358 (GDAP1Δ319–358) with the CMT-linked mutation R310W; CMT disease variant; eluted as monomer (highest peak) and dimer; source: E. coli BL21(DE3), autoinduction, purified (Ni-NTA, TEV cleavage, reverse Ni-NTA, SEC); not shown: His6, N-terminal, cleaved

Assays:
[1] = molecular target: wild-type GDAP1 (GDAP1Δ303–358) (human) (UniProt Q8TB36); assay: batch-mode SAXS; concentration range 1–4 mg/ml, P12 beamline EMBL/DESY
[2] = molecular target: the molecule itself; assay: SEC-SAXS; variants in GDAP1Δ303–358; 100 μl at 1.7–36 mg/ml (maximum concentration for each variant) injected onto a BioSEC3-300 column, 25 mM HEPES pH 7.5, 300 mM NaCl, +15°C; top of the peak analysed
[3] = molecular target: the molecule itself; assay: SEC-SAXS; Arg310 mutants in GDAP1Δ319–358, at lower concentration than all the other mutants; BioSEC3-300 column, 25 mM HEPES pH 7.5, 300 mM NaCl, +15°C; two peaks (dimer and monomer)

| Molecule | stoichiometry N [2] | further results |
| --- | --- | --- |
| wild-type GDAP1 (GDAP1Δ303–358) (from UniProt Q8TB36-1 1-302) (domain or fragment) | – | stoichiometry N [1]: 2 |
| B1 | 2 | – |
| B2 | 2 | – |
| B3 | 2 | – |
| B4 | 2 | – |
| B5 | 2 | – |
| B6 | – | stoichiometry N [3]: 2 |
| B7 | – | stoichiometry N [3]: 2 |

From article PMC10104300, “Conserved intramolecular networks in GDAP1 are closely connected to CMT-linked mutations and protein stability” (PLOS ONE, 2023)
